Laboratory results: the supplement of paper PMC12764529
± gives the half width of the 95% confidence interval.

How the values were obtained:
[1] = folding stability dG unfold from trypsin proteolysis; higher = more stable
Summary of the method: (§1)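 Only designs with AlphaFold2 dimer inter-PAE above 15 were retained; each was a mini-protein under 80 residues with no cysteine, in a PA-tagged cDNA display construct. After digestion with trypsin and chymotrypsin and sequencing, K50 was inferred by Bayesian fitting of counts, and unfolding free energy was derived per protease or combined against a sequence-predicted unfolded-state K50 and a shared folded-state K50.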

[2] = folding stability dG unfold from chymotrypsin proteolysis; higher = more stable
Summary of the method: as §1

[3] = folding stability dG unfold (combined trypsin and chymotrypsin); higher = more stable
Summary of the method: as §1

| Sequence | folding stability dG unfold [1] [kcal/mol] | folding stability dG unfold [2] [kcal/mol] | folding stability dG unfold [3] [kcal/mol] |
| --- | --- | --- | --- |
| SAGMMVKVEIEFPLTLTTTEKVGTGPNGIPVFETREEIVVITFRATVPENPEEVAAAKEEAKAVAEALSSAG [r14_223_JUSTAS] | 1.8 ± 0.042 | 2.08 ± 0.11 | 1.89 ± 0.2 |
| SAGMMYKITIKTKNGEKIEIEIPAEELENLTEEQLKELAKELAKKLEEEGIEVEKVEVKIEPVKPEELSAGG [r19_334_TrROS_Hall] | 3.3 ± 0.23 | 2.93 ± 0.058 | 3.04 ± 0.13 |
| SAGMNLSPEEIAERIREEAKKKYPNSEVEVRIVSQPPTTIVLEVKITIYFPEEGGSIIEEPRVITIDRLSAG [r14_187_JUSTAS] | 2.05 ± 0.076 | 2.17 ± 0.13 | 2.15 ± 0.13 |
| SAGMPAGDFEPVKVEYTIKIPILNEGGGAAAPMPIKVKVEVYRMPNGNLFIKFEIEIPGGNKIEFWFPISAG [r5_580_TrROS] | 2.67 ± 0.28 | 4.32 ± 0.13 | 3.99 ± 0.26 |
| SAGMPETITIKIRNPETGKLYEIEIEKVDGEVKVTIRDVETGKERREITMTPEEVRELLKELGFEVEEVSAG [r5_291_TrROS_Hall] | 1.42 ± 0.049 | 3.1 ± 0.056 | 2.63 ± 0.059 |
| SAGMPGKIRVEVEAEISEDNVIKLKIKIYGPDGELIDEIEAEIYLPVPPLSPSEGGGLIEAGNPELAEGSAG [r5_944_TrMRF] | 2.54 ± 0.2 | 3.38 ± 0.092 | 3.13 ± 0.13 |
| SAGMPLRTVKVLVTINDKTEEKTLSEEELKALIESGELELLGKEPEENIVYVYKKVPPPVGSKTKKSLLSAG [r5_868_JUSTAS] | 0.71 ± 0.29 | 1.94 ± 0.17 | 1.64 ± 0.27 |
| SAGMPPPEEVFVVKVRFDGKELTLVVRVPPGMSAEEVAKKLAEELRKKFGPDIEVEVRRVSREELLEALSAG [r5_583_TrROS_Hall] | 3.66 ± 0.13 | 2.95 ± 0.12 | 3.23 ± 0.18 |
| SAGMPSFTTTSAPTEQLPELLAELATRPPNVSYTFPLPDPSRSLSLSVSADRITLTDPATGTTTTLPASAGG [r19_154_JUSTAS] | -0.653 ± 0.17 | -1.12 ± 0.51 | -0.779 ± 0.2 |
| SAGMPVTVTSTSDPENGSTTVPRTHPTGPVVTVTITKLPPGELRVTVDAGTTVTLYTLPPDALTTFTTPSAG [r5_14_JUSTAS] | 0.51 ± 0.16 | 0.13 ± 0.18 | 0.339 ± 0.11 |
| SAGMSADIPVDPVTGTLTITVTDAFNPDKSTTTTVPLSELEAELGRPLTLEEVAARVEAAGVATVTVGPSAG [r14_809_JUSTAS] | 1.46 ± 0.051 | -0.0285 ± 0.085 | 0.82 ± 0.056 |
| SAGMSEEERKAAEEASKPPVKVETLTVTVLVEVDGKLYLVRATITRVVLPDGSIVTELKIEIIPLEDLSAGG [r19_11_TrROS_Hall] | 3.05 ± 0.21 | 4.26 ± 0.33 | 3.88 ± 0.3 |
| SAGMSLVPLEELARAWAEERGLPVLDVEVPESRSPATRHVTITLTLRDPATGALTTETRELVIPEEELGSAG [r5_421_JUSTAS] | 0.585 ± 0.077 | 0.583 ± 0.096 | 0.621 ± 0.1 |
| SAGMTAEELAEELAKELEVEVTLENGEKRRVRVEVKVERLPDGTLLLTAKVENEETGETFEIKIEIKLESAG [r5_397_TrROS_Hall] | 2.9 ± 0.13 | 4.3 ± 0.37 | 3.67 ± 0.33 |
| SAGMTALFTDSSGKEVTFSHPNLELTVDPETGVVSAYEPESNLKVEVKVAPDKVTVTVYSGSSSKEIPLSAG [r5_786_JUSTAS] | -0.226 ± 0.064 | 0.956 ± 0.16 | 0.574 ± 0.11 |
| SAGMTFKNPGSDKTLTYEPETGAITLHNGDSVSTLPLPPGTSFTVTVDPEKGVVTITVPETGATITLPLSAG [r5_858_JUSTAS] | 1.07 ± 0.028 | 0.248 ± 0.22 | 0.803 ± 0.11 |
| SAGMTIEELRSLPPGARVTSVEYDEETEEVTVTVERTREDGKTETLTLTFRSREELEAALKAGADRIVFSAG [r5_905_TrROS_Hall] | 1.731 ± 0.017 | 1.16 ± 0.059 | 1.54 ± 0.052 |
| SAGMTIELPNATVTLERVPVPATGESAWVVTVTARHPDGSTPTVVAVFPEDTPPEDVLAAALALAEELESAG [r5_704_TrMRF] | 4.75 ± 0.44 | 4.62 ± 0.075 | 4.78 ± 0.16 |
| SAGMTIKIKNKKTNKVITIERRPDGTTVKVKVYDKNGKLVKTYPEGMTLEELLKKFPNAKVEVVEVEKPSAG [r5_314_TrROS_Hall] | 1.47 ± 0.033 | 0.559 ± 0.11 | 1.14 ± 0.07 |
| SAGMTLIIRVKVYNKDGELVEEREIEVPNMSVEEIAEALKKLPNVEKVKIEVFNADGEKKEIEIEVKPSAGG [r19_269_TrROS_Hall] | 3.08 ± 0.13 | 4.43 ± 0.064 | 4.1 ± 0.09 |
| SAGMTTLTLSAKAPPGEAVVTLTVTLPDGTTVPLATRTVAPDEVANITVSFPSGEPIDPARLTVEVTPPSAG [r5_287_JUSTAS] | 0.0521 ± 0.14 | 0.137 ± 0.15 | 0.157 ± 0.13 |

| Sequence | folding stability dG unfold [1] [kcal/mol] | folding stability dG unfold [2] [kcal/mol] | folding stability dG unfold [3] [kcal/mol] |
| --- | --- | --- | --- |
| SAGMTTTLTKGEDGVTLTFDLPGQSVTLTVPVPPDVEVTTSFPATGTTITGTPVGDTLTITVTVPAPASAGG [r19_384_JUSTAS] | 1.78 ± 0.028 | 1.52 ± 0.041 | 1.69 ± 0.038 |
| SAGMTVEELKAQPKNATVTSVSRDPSTGLYTVTIERPDSNGKWVTHTLTLTGPEAVAAAVAAGLPSLAASAG [r5_905_JUSTAS] | 1.31 ± 0.026 | 2.46 ± 0.043 | 2.16 ± 0.087 |
| SAGMTVKVKVEVKTKYFDKNGKLVKEEKKTVEVEVEVKIVIELKPEDLEKAKELAEKLGIEITEEELKSAGG [r19_315_TrROS_Hall] | 1.26 ± 0.29 | 1.86 ± 0.17 | 1.74 ± 0.56 |
| SAGMVEIVHDPAGYYTVNVTLTKEGKPTSRTIRVPPELSPEEVKALVEELAKEEGVDDVEVTVIPLPESAGG [r19_31_JUSTAS] | 1.1 ± 0.035 | 1.51 ± 0.12 | 1.41 ± 0.12 |
| SAGMVEVYEEDKRLLVRVTLESPDPSTITEETVRELLERLGLPVEELEISPTALPNGSYTVTAEVVVLPSAG [r5_922_JUSTAS] | 1.39 ± 0.056 | 1.61 ± 0.025 | 1.59 ± 0.17 |
| SAGMVIKVEVIYNGKKYTIEISEEQLKELLEKLKPGDEVEIEINGEKVLVRVEVVEPPEPSEEELKALKSAG [r5_669_TrROS_Hall] | 0.944 ± 0.087 | 2.1 ± 0.2 | 1.69 ± 0.24 |
| SAGMVIPREEALANYSEEEIKELAKKIAEELGYKPKKIEIKKDPSPNSSITVTITPPDGSTIPLVLELPSAG [r5_745_JUSTAS] | 0.959 ± 0.041 | 1.08 ± 0.037 | 1.06 ± 0.047 |
| SAGMVIRDPGDGKYIYISPGSGEIEIFNDGKEKKIPFPPGEEMEIEIDPDDGTITITFPNNGRELEIPLSAG [r5_858_TrROS] | 0.598 ± 0.049 | 0.846 ± 0.11 | 0.699 ± 0.16 |
| SAGMVITISSDLSPEEVLATAQALAAELGAKKVEVERDPANPDVVTVTVEFPGLGKTVTVNVLPPELLESAG [r5_912_JUSTAS] | 1.28 ± 0.059 | 1.78 ± 0.065 | 1.57 ± 0.15 |
| SAGMVKTVTLSREEVEKLVRELGRSPEEMTLEEFAERLEELFPGATVTVTVDTKTGTYTITITFPPSLASAG [r5_264_JUSTAS] | 3.61 ± 0.25 | 4.16 ± 0.085 | 3.93 ± 0.23 |
| SAGMVKVEVEYRPLPNGTVEVTVKLTITEPVPDEDGNLYYKTKTLTITVPTTSLSEAPKHVEEFIKKLSAGG [r19_218_TrMRF] | 2.52 ± 0.12 | 4.03 ± 0.18 | 3.37 ± 0.19 |
| SAGMVRIERDGDELLIEFEFPEDEPEAVRALIEAIESLGLEVVEAEIEAEPGEGDLRRVRLRFKIKPLESAG [r5_739_TrMRF] | 3.95 ± 0.22 | 4.58 ± 0.083 | 4.39 ± 0.15 |
| SAGMVTTTTVTFPNGATMTVTTHSSGIITIEATSEEDARAFLEAQGLPLTSREVLPDGTYRFTAVVPPSAGG [r19_257_JUSTAS] | 4.61 ± 0.13 | 4.53 ± 0.057 | 4.52 ± 0.062 |
| SAGMVTYTVTVPYAPAGKRVRVTLFDEGKEIASFEGVENAPYNQTFTFTAPPFTIRIEYEDGSVDPLPASAG [r5_646_TrMRF] | 3.32 ± 0.27 | 4.05 ± 0.058 | 3.57 ± 0.23 |
| SAGMVVIEVKKDEVPVDPEKALVFEFGDKRYILVDGEKAEEIKDAFPNLDIKIKPVSPEELEKLLKAHSAGG [r19_271_TrMRF] | 1.18 ± 0.051 | 1.34 ± 0.1 | 1.27 ± 0.14 |
| SAGMVVKFVSPSKKYVAVVYFSPDGKYRTALLYDASGELVSVIPSSVPVEELLEAFPDATVEVYPLDPPSAG [r5_314_TrMRF] | 1.95 ± 0.041 | 2.59 ± 0.056 | 2.34 ± 0.1 |
| SAGMVVRITVLPEGEEREFVVAATPEEARELLEELGYEVEEFPELPVLVARRPDAVVLVEFIPVAPDALSAG [r5_248_TrMRF] | 1.59 ± 0.032 | 1.999 ± 0.015 | 1.83 ± 0.039 |
| SAGMVVTERTEPATGRPYTVTTEEDGSVTGSYPATGDTRSTTLNDRTTFSLPTTSPEVAAAQVEAALAASAG [r14_561_JUSTAS] | -0.138 ± 0.075 | -0.313 ± 0.15 | -0.137 ± 0.072 |
| SAGMVVTINFSIPETGETITITIPVPEDDPVVKALGAPSAEDIAAYLAPQLKEKGINVQNPTVTVTEPSSAG [r5_722_JUSTAS] | 0.24 ± 0.043 | 0.928 ± 0.053 | 0.705 ± 0.051 |
| SAGNFKIDINPENNMIMIKSPNGWFMFPFTYTRTQPEPDPDDPNEWKQRPRTETHYIMMPANDLKDLLNSAG [r5_234_TrROS] | 0.679 ± 0.17 | 0.502 ± 0.24 | 0.541 ± 0.27 |
| SAGNIRIDVHVPPDGYYMIKIRFPGNGREANIMLPPNDPDKFKELAEEIAENLFEEGFPIEVDIEPIPPSAG [r5_815_TrROS] | 1.56 ± 0.07 | 2.34 ± 0.095 | 1.89 ± 0.31 |
